For one substance, Kd results are on record in US20150086562A1.

The target in this assay is recombinant CD22 extracellular domain. Description: The sheet does not state the method. The column 'KD (nM)' stands beside the confocal data. The values largely repeat FIGURE 18 (SPR on recombinant CD22 extracellular domain), so the target form is taken from there.
Chain of recombinant CD22 extracellular domain (chain, as listed by the source limits assumed): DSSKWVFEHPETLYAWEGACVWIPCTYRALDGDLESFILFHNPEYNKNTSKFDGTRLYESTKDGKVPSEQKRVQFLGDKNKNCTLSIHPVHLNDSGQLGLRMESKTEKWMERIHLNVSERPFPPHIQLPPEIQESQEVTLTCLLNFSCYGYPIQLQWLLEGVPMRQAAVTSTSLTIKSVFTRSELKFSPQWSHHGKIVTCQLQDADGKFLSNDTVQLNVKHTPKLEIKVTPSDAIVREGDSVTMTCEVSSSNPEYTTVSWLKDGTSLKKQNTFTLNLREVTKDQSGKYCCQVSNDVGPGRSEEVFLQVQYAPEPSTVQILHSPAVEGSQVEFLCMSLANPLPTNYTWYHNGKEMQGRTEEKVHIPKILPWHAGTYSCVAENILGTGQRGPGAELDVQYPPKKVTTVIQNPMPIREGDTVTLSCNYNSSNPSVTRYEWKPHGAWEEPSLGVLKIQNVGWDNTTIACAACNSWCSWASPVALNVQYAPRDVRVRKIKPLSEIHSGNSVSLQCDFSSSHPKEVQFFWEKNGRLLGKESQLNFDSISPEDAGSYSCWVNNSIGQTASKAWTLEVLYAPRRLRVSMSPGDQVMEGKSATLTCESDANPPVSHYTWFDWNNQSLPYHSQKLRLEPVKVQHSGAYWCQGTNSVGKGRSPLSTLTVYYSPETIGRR

For the substance LL2 (mouse Mab) (antibody), the Kd – broadly, a measure of binding affinity in units of concentration – amounted to 20 nM.
